{
  "source": "patent US5677146A",
  "about": "“Human amyloid protein precursor homolog and kunitz-type inhibitor” (Zymogenetics, Inc., priority 1995, dated 1997)",
  "molecules": {"B1": {"name": "APPH: Kunitz-type inhibitor domain of the human amyloid protein precursor homologue (SEQ ID NO:2 region 53/56/57-110), expressed in yeast (protein)", "chain": "GYIEALAANAGTGFAVAEPQIAMFCGKLNMHVNIQTGKWEPDPTGTKSCFETKEEVLQYCQEMYPELQITNVMEANQRVSIDNWCRRDKKQCKSRFVTPFKCLVGEFVSDVLLVPEKCQFFHKERMEVCENHQHWHTVVKEACLTQGMTLYSYGMLLPCGVDQFHGTEYVCCPQTKIIGSVSKEEEEEDEEEEEEEDEEEDYDVYKSEFPTEADLEDFTEAAVDEDDEDEEEGEEVVEDRDYYYDTFKGDDYNEENPTEPGSDGTMSDKEITHDVKAVCSQEAMTGPCRAVMPRWYFDLSKGKCVRFIYGGCGGNRNNFESEDYCMAVCKAMIPPTPLPTNDVDVYFETSADDNEHARFQKAKEQLEIRHRNRMDRVKKEWEEAELQAKNLPKAERQTLIQHFQAMVKALEKEAASEKQQLVETHLARVEAMLNDRRRMALENYLAALQSDPPRPHRILQALRRYVRAENKDRLHTIRHYQHVLAVDPEKAAQMKSQVMTHLHVIEERRNQILSLLYKVPYVAQEIQEEIDELLQEQRADMDQFTASISETPVDVRVSSEESEEIPPFHPFHPFPALPENEDTQPELYHPMKKGSGVGEQDGGLIGAEEKVINSKNKVDENMVIDETLDVKEMIFNAERVGGLEEERESVGPLREDFSLSS"}},
  "assay_type_in_all_cases": "biochemical",
  "key": {"Trypsin": {"test_system": "Trypsin", "test": "Protease inhibitory activity assay, trypsin", "conditions": "1 μM inhibitor; trypsin 8 nM; H-D-Val-Leu-Lys-pNA 0.6 mM; 25° C.", "procedure": "Trypsin (8 nM) H--D--Val--Leu--Lys--pNA\n(§1) Inhibition assays were performed in microtiter wells in a total volume of 300 μl in 10 mM NaCl, 50 mM Tris-HCl (pH 7.4), 0.01% TWEEN80 (Polyoxyethylenesorbitan monoleate). The reactions were incubated at 25° C. for ten minutes after which the appropriate chromogenic substrate was added to the final concentration listed in Table 2 and the final reaction was incubated for thirty minutes at 25° C. Amidolytic activity was measured at 405 nm or by fluorescence Em at 460 nm."}, "Chymotrypsin": {"test_system": "Chymotrypsin", "test": "Protease inhibitory activity assay, chymotrypsin", "conditions": "1 μM inhibitor; chymotrypsin 2.5 nM; MeO-Suc-Arg-Pro-Tyr-pNA 0.6 mM; 25° C.", "procedure": "MeO--Suc--Arg--Pro--Tyr--pNA\nas §1"}, "[1]": {"test_system": "GL Kallikrein (glandular kallikrein)", "test": "Protease inhibitory activity assay, glandular kallikrein", "conditions": "1 μM inhibitor; GL kallikrein 1 U/ml; H-D-Val-Leu-Arg-pNA 0.6 mM; 25° C.", "procedure": "H--D--Val--Leu--Arg--pNA\n(§2) Abbreviations in Table 2: rec. refers to recombinant, GL kallikrein refer\n(§3) to glandular kallikrein, and PL kallikrein refers to plasma kallikrein.\nas §1"}, "Plasmin": {"molecular_target": "T1, Plasmin (Homo sapiens, UniProt P00747)", "T1 construct": "Plasmin (10 nM); purchased Kabi", "T1 sequence (P00747 97-580 limits assumed)": "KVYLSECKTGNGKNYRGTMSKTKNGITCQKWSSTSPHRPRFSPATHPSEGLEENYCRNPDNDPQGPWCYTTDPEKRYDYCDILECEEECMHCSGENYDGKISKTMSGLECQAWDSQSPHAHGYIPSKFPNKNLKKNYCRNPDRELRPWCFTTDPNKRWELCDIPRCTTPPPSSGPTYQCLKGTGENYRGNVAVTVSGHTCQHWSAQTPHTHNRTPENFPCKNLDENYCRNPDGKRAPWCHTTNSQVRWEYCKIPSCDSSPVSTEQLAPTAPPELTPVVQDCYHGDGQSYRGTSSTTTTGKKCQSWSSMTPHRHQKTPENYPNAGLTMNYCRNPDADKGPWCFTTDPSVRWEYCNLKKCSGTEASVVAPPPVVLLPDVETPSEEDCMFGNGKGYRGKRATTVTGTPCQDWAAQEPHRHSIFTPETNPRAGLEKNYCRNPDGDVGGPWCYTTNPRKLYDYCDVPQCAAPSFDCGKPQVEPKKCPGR", "T1 sequence (P00747 581-810 limits assumed)": "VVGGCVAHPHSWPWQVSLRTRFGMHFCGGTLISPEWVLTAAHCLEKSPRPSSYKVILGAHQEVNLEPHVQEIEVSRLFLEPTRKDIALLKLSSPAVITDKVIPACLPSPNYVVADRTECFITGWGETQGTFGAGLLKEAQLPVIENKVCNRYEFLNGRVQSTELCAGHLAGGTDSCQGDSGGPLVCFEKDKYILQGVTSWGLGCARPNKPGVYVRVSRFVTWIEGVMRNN", "test": "Protease inhibitory activity assay, plasmin", "conditions": "1 μM inhibitor; plasmin 10 nM; H-D-Val-Leu-Lys-pNA 0.6 mM; 25° C.", "procedure": "H--D--Val--Leu--Lys--pNA\nas §1"}, "Urokinase": {"molecular_target": "T2, Urokinase (Homo sapiens, UniProt P00749)", "T2 construct": "purchased Serono, Freigung, Germany", "test": "Protease inhibitory activity assay, urokinase", "conditions": "1 μM inhibitor; urokinase 5 nM; <Glu-Gly-Arg-pNA 0.6 mM; 25° C.", "procedure": "as §1"}, "[2]": {"molecular_target": "T3, rec. Protein Ca (activated protein C) (Homo sapiens, UniProt P04070)", "T3 construct": "purchased Novo Nordisk A/S", "T3 sequence (P04070 43-197 limits assumed)": "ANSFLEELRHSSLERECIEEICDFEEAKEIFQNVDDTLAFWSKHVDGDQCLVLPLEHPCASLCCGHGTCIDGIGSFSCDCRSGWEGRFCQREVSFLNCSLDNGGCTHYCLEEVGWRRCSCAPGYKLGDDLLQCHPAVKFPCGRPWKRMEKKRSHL", "T3 sequence (P04070 212-461 limits assumed)": "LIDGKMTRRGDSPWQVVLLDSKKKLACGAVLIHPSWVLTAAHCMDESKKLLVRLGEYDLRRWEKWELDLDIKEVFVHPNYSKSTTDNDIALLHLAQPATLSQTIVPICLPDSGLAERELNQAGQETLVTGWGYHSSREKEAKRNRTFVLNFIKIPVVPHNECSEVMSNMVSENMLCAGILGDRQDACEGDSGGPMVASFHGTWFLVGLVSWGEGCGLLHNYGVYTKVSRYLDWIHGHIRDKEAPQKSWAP", "test": "Protease inhibitory activity assay, activated protein C", "conditions": "1 μM inhibitor; rec. Protein Ca 5 nM; <Glu-Pro-Arg-pNA 0.6 mM; 25° C.", "procedure": "as §1\nr.h. refers to recombinant human, h. refers to human, protein Ca refers t\nactivated protein C; APPH refers to the KunitzType inhibitor domain of […]"}, "[3]": {"molecular_target": "T4, PL Kallikrein (plasma kallikrein) (Homo sapiens, UniProt P03952)", "T4 construct": "purchased Kabi", "T4 sequence (P03952 20-390 limits assumed)": "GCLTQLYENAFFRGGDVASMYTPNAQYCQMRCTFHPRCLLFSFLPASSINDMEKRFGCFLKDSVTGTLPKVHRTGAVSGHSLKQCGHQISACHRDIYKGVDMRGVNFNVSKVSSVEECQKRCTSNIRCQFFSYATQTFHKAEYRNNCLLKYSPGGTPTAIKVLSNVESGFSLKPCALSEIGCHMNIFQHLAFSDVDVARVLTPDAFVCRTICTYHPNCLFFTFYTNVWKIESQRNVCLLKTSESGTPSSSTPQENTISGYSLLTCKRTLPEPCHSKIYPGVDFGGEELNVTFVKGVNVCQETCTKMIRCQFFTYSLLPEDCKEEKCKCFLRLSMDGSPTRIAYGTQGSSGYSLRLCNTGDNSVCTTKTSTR", "T4 sequence (P03952 391-638 limits assumed)": "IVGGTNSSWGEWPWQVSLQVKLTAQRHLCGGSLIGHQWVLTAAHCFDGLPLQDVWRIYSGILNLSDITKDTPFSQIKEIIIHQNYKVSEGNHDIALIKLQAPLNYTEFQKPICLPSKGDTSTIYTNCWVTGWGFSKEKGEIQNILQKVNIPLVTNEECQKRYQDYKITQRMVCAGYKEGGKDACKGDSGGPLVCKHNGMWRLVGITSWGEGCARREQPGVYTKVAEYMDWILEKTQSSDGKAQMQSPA", "test": "Protease inhibitory activity assay, plasma kallikrein", "conditions": "1 μM inhibitor; PL kallikrein 3 nM; H-D-Pro-Phe-Arg-pNA 0.6 mM; 25° C.", "procedure": "(§4) H--D--Pro--Phe--Arg--pNA\nas §2, §3, §1"}, "human Factor XIIa": {"molecular_target": "T5, human Factor XIIa (Homo sapiens, UniProt P00748)", "T5 construct": "human Factor XIIa (30 nM); purchased Dr. Walt Kisiel, University of New Mexico, Albuquerque, NM", "T5 sequence (P00748 20-372 limits assumed)": "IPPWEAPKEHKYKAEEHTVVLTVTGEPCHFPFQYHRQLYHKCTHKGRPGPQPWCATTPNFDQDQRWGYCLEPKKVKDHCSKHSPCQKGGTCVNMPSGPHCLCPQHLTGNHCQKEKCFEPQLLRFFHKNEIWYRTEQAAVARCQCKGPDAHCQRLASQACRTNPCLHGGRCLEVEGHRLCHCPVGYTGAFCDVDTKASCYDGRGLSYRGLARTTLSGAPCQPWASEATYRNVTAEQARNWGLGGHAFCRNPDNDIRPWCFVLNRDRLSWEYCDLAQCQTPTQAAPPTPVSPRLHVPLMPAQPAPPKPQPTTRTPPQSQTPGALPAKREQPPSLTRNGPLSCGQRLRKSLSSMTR", "T5 sequence (P00748 373-615 limits assumed)": "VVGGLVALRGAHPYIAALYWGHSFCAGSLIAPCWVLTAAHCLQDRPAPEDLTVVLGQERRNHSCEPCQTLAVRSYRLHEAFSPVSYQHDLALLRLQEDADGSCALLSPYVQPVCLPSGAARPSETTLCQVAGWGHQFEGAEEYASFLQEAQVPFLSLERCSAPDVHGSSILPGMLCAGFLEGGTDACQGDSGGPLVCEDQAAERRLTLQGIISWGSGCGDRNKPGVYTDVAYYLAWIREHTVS", "test": "Protease inhibitory activity assay, Factor XIIa", "conditions": "1 μM inhibitor; Factor XIIa 30 nM; H-D-Pro-Phe-Arg-pNA 0.6 mM; 25° C.", "procedure": "human Factor XIIa (30 nM)\nas §4, §1"}, "human Factor XIa": {"molecular_target": "T6, human Factor XIa (Homo sapiens, UniProt P03951)", "T6 construct": "human Factor XIa (1 nM); purchased Dr. Kazuo Fujikawa, University of Washington, Seattle, WA", "T6 sequence (P03951 19-387 limits assumed)": "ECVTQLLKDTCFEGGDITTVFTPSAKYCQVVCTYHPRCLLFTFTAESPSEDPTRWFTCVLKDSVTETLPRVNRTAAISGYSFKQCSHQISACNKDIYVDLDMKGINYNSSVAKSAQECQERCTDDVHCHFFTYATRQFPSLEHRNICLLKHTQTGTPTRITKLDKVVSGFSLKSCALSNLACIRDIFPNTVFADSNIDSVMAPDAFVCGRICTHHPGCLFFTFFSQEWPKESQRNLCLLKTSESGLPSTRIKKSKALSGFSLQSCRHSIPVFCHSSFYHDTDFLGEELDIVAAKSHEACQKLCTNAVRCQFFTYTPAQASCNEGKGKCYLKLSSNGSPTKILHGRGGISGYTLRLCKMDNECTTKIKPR", "T6 sequence (P03951 388-625 limits assumed)": "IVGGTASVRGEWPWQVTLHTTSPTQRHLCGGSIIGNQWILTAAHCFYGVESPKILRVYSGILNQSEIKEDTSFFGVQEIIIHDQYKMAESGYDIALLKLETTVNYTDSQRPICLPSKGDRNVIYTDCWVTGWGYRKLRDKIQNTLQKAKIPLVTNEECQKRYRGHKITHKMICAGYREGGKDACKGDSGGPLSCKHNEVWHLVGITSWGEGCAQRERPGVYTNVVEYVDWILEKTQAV", "test": "Protease inhibitory activity assay, Factor XIa", "conditions": "1 μM inhibitor; Factor XIa 1 nM; Boc-Glu(OBzl)-Ala-Arg-MCA 0.12 mM; 25° C.", "procedure": "Boc--Glu(OBzl)--Ala--Arg--MCA\nas §1"}, "human Factor Xa": {"molecular_target": "T7, human Factor Xa (Homo sapiens, UniProt P00742)", "T7 construct": "human Factor Xa (3 nM); purchased Dr. I. Schousboe, Copenhagen, Denmark", "T7 sequence (P00742 41-179 limits assumed)": "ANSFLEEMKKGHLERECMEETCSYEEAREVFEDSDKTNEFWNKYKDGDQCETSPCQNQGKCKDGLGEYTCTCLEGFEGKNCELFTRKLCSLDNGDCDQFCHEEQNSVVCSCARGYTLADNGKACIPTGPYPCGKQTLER", "T7 sequence (P00742 235-488 limits assumed)": "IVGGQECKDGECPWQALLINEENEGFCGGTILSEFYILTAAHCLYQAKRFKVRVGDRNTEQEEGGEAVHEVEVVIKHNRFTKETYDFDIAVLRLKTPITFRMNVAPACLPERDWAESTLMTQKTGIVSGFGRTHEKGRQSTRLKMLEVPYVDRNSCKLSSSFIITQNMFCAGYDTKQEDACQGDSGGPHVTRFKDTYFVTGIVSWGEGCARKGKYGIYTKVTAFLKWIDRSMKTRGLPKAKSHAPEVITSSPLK", "test": "Protease inhibitory activity assay, Factor Xa", "conditions": "1 μM inhibitor; Factor Xa 3 nM; MeO-CO-CHA-Gly-Arg-pNA 0.3 mM; 25° C.", "procedure": "The reactions were incubated at 25° C. for ten minutes after which the appropriate chromogenic substrate was added to the final concentration listed in Table 2 and the final reaction was incubated for thirty minutes at 25° C. Amidolytic activity was measured at 405 nm or by fluorescence Em at 460 nm."}, "rec. human Factor VIIa": {"molecular_target": "T8, rec. human Factor VIIa (Homo sapiens, UniProt P08709)", "T8 construct": "rec. human Factor VIIa; purchased Novo Nordisk A/S", "T8 sequence (P08709 61-212 limits assumed)": "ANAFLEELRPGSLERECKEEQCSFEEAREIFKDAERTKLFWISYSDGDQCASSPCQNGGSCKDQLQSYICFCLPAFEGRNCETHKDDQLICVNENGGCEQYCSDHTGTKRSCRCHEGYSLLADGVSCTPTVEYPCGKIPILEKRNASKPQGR", "T8 sequence (P08709 213-466 limits assumed)": "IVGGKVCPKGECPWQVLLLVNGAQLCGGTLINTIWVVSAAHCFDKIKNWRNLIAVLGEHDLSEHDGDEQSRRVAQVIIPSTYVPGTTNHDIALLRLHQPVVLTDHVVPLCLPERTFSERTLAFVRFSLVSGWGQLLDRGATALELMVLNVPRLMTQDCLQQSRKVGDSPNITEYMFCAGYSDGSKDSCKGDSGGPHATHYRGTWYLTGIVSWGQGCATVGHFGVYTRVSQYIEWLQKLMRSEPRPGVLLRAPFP", "test": "Protease inhibitory activity assay, Factor VIIa", "conditions": "1 μM inhibitor; Factor VIIa 300 nM; H-D-Ile-Pro-Arg-pNA 0.6 mM; 25° C.", "procedure": "H--D--Ile--Pro--Arg--pNA\nas §1"}, "Leukocyte Elastase": {"molecular_target": "T9, Leukocyte Elastase (Homo sapiens, UniProt P08246)", "T9 construct": "purified at Novo Nordisk A/S; tissue Novo Nordisk A/S (purified there); host or cells: leukocytes", "T9 sequence (P08246 30-267)": "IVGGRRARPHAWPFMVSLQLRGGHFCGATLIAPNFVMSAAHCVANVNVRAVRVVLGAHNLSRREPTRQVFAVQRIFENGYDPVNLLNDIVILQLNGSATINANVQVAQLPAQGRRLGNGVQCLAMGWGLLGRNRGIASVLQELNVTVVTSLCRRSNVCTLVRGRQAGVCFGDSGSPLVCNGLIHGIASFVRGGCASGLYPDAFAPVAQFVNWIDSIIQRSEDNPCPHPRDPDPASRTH", "test": "Protease inhibitory activity assay, leukocyte elastase", "conditions": "1 μM inhibitor; MeO-Suc-Ala-Ala-Pro-Val-pNA 0.6 mM; 25° C.", "procedure": "MeO--Suc--Ala--Ala--Pro--Val--pNA\n(§5) purified at Novo Nordisk A/S\nas §1"}, "Cathepsin G": {"molecular_target": "T10, Cathepsin G (Homo sapiens, UniProt P08311)", "T10 construct": "purified at Novo Nordisk A/S; tissue Novo Nordisk A/S (purified there); host or cells: leukocytes (by the cited method)", "T10 sequence (P08311 21-255)": "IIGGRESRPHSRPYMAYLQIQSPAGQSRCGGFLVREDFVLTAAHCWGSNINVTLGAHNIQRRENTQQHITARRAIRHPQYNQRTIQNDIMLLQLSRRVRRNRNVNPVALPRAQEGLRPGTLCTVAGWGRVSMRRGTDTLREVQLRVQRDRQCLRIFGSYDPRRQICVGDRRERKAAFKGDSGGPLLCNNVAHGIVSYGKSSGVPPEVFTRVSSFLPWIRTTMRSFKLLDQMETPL", "test": "Protease inhibitory activity assay, cathepsin G", "conditions": "1 μM inhibitor; Suc-Ala-Ala-Pro-Phe-pNA 0.6 mM; 25° C.", "procedure": "Cathepsin G Suc--Ala--Ala--Pro--Phe--pNA\nas §5\n(0.6 mM) (SEQ ID NO: 19)\nas §1"}},
  "data": [
    {"molecule": "B1", "values": [
      {"measurement": "% Inhibition, Trypsin", "setting": "Trypsin", "result": 99.6, "unit": "%"},
      {"measurement": "% Inhibition, Chymotrypsin", "setting": "Chymotrypsin", "result": 61, "unit": "%"},
      {"measurement": "% Inhibition, GI Kallikrein", "setting": "[1]", "result": 97, "unit": "%"},
      {"measurement": "% Inhibition, Plasmin", "setting": "Plasmin", "result": 77, "unit": "%"},
      {"measurement": "% Inhibition, Urokinase", "setting": "Urokinase", "result": 2, "unit": "%"},
      {"measurement": "% Inhibition, r.h. Protein Ca", "setting": "[2]", "result": 0, "unit": "%"},
      {"measurement": "% Inhibition, PL Kallikrein", "setting": "[3]", "result": 69, "unit": "%"},
      {"measurement": "% Inhibition, h. Factor XIIa", "setting": "human Factor XIIa", "result": 6, "unit": "%"},
      {"measurement": "% Inhibition, h. Factor XIa", "setting": "human Factor XIa", "result": 99.8, "unit": "%"},
      {"measurement": "% Inhibition, h. Factor Xa", "setting": "human Factor Xa", "result": 0, "unit": "%"},
      {"measurement": "% Inhibition, r.h. Factor VIIa", "setting": "rec. human Factor VIIa", "result": 15, "unit": "%"},
      {"measurement": "% Inhibition, Leukocyte Elastase", "setting": "Leukocyte Elastase", "result": 4, "unit": "%"},
      {"measurement": "% Inhibition, Cathepsin G", "setting": "Cathepsin G", "result": 0, "unit": "%"}
    ]}
  ]
}
